Reference: patent CN111153994A (WUHAN ABEX BIOTECHNOLOGY CO LTD, dated 2020)

Target: T1, 人TNFα蛋白 (人肿瘤坏死因子) (human, UniProt P01375 77-233)
T1 construct: also called human TNFα
Assay: ELISA: human TNFα coated on the plate, serially diluted FC9 as primary antibody, HRP goat anti-human IgG-Fc as secondary

T1 sequence (P01375 77-233 limits assumed): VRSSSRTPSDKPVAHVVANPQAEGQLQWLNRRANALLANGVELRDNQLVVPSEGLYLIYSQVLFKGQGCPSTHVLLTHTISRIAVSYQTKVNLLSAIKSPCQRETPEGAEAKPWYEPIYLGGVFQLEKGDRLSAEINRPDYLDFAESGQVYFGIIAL

EC50: ~400 pM
B1: FC9抗体 (针对人肿瘤坏死因子的人源单克隆抗体) (antibody, human IgG1, kappa, V domains shown)
VH: QLVQSGAEVKKPGASVKVSCKASGYTFTSYYMHWVRQAPGQGLEWMGIINPSGGSTSYAQKFQGRVTMTRDTSTSTVYMELSSLRSEDTAVYYCASFDYWGQGTLVTVSS
VL: EIVLTQSPGTLSLSPGERATLSCRTSQSVSSSYLAWYQQKPGQAPRLLIYGASSRATGIPDRFSGSGSGTDFTLTISRLEPEDFAVYFCQQFGTSSITFGQGTRLEIKR
notes: Point mutant of FC0 in an aggregation-prone region of the heavy chain; Expressed in 293F cells from pVitro2-neo-mcs, purified on Protein A and detected with anti-human IgG-Fc; also called FC9 antibody
